Like-named read-outs stand apart in the source and are kept apart here. Values belong to the binder of their own block, whether it stands above or below them.
How the values were obtained:
[1] = target: T1, Human 4-1BB, human Fc tag protein (Hu4-1BB-hFc) (human); test: ELISA, Hu4-1BB-hFc coated, antibody 6.65 nM to 0.009 nM
T1 construct: also called Hu4-1BB-huFc; human 4-1BB proteins

[2] = target: T2, Human 4-1BB recombinant protein (Sinobiological, Cat #10041-H08H) (human, UniProt Q07011 24-186); test: BLI (ForteBio Octet RED 96), antibody on AHC sensors, human 4-1BB as analyte, 1:1 model
T2 construct: Bought recombinant protein

[3] = target: T3, Human OX40 (Sinobiological, Cat #10481-H08H) (human, UniProt P43489 29-216); test: ELISA, antigen coated at 25 ng/well
T3 sequence (looked up): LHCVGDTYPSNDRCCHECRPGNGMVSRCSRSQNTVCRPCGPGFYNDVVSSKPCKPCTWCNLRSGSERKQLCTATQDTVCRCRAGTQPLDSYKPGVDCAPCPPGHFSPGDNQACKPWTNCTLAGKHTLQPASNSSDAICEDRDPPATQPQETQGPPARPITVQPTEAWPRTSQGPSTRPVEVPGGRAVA

[4] = target: Human CD40 (Sinobiological, Cat #10774-H08H) (human, UniProt P25942 21-193); test: ELISA, antigen coated at 25 ng/well
[5] = target: T4, Human CD27 (Sinobiological, Cat #10039-H31H) (human, UniProt P26842 20-192); test: ELISA, antigen coated at 25 ng/well
T4 sequence (looked up): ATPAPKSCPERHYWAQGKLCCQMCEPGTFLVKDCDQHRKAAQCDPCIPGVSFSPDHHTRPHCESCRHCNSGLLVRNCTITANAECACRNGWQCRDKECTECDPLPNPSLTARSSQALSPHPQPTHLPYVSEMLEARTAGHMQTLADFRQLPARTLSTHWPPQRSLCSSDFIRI

[6] = target: T5, Human HVEM (Sinobiological, Cat #10334-H03H) (human, UniProt Q92956 39-202); test: ELISA, antigen coated at 25 ng/well
T5 sequence (looked up): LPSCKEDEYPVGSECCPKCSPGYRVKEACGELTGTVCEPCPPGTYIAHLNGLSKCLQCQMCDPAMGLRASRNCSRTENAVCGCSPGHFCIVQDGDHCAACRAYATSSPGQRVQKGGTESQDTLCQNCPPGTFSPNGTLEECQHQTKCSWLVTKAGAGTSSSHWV

[7] = target: T6, Human GITR (Sinobiological, Cat #13643-H08H) (human, UniProt Q9Y5U5 26-161); test: ELISA, antigen coated at 25 ng/well
T6 sequence (looked up): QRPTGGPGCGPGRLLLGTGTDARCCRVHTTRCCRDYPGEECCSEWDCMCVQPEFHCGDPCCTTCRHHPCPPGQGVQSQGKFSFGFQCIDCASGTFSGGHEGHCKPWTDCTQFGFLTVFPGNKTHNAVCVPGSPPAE

[8] = target: T2, Human 4-1BB recombinant protein …; test: ELISA on plate-coated human 4-1BB (25 ng/well), HRP anti-human IgG F(ab')2 detection, OD450; EC50 table under the curve, unit taken from the axis 'Antibody Conc [nM]'
[9] = target: T7, Human 4-1BB expressed on HEK293-NFκB-Luc-human 4-1BB cells (human, UniProt Q07011 24-255); test: cell-based or functional assay
[10] = target: T7, Human 4-1BB expressed on …; test: cell-based or functional assay; remark: listed apart in the source
[11] = target: T2, Human 4-1BB recombinant protein …; test: ELISA on plate-coated human 4-1BB (25 ng/well), HRP anti-human IgG F(ab')2 detection, OD450-620; EC50 table under the curve, unit taken from the axis 'Antibody Conc [nM]'
[12] = target: T7, Human 4-1BB expressed on …; test: cell-based or functional assay; remark: listed apart in the source
[13] = target: T7, Human 4-1BB expressed on …; test: cell-based or functional assay; remark: listed apart in the source
[14] = target: T7, Human 4-1BB expressed on …; test: cell-based or functional assay; remark: listed apart in the source
[15] = target: T7, Human 4-1BB expressed on …; test: cell-based or functional assay; remark: listed apart in the source
[16] = target: T2, Human 4-1BB recombinant protein …; test: ELISA on plate-coated human 4-1BB (25 ng/well), HRP anti-human IgG F(ab')2 detection, OD450; EC50 table under the curve, unit taken from the axis 'Antibody Conc [nM]'; remark: listed apart in the source
[17] = target: T2, Human 4-1BB recombinant protein …; test: as above; remark: listed apart in the source
[18] = target: T7, Human 4-1BB expressed on …; test: cell-based or functional assay; remark: listed apart in the source

Sequence of Human CD40 (Sinobiological, Cat #10774-H08H) (P25942 21-193 limits assumed): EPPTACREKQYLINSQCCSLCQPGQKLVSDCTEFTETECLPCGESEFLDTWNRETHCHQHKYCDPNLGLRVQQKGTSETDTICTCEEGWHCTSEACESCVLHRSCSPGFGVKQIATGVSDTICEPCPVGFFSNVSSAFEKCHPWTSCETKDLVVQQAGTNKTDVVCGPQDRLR
T7 sequence (Q07011 24-255 limits assumed): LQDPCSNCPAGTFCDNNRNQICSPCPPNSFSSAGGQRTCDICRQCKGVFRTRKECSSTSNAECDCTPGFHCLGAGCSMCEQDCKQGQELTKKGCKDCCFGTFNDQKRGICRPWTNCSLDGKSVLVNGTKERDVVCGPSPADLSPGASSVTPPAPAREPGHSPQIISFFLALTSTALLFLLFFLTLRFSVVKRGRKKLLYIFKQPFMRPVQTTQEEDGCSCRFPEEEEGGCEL
T1 sequence (chain, as listed by the source limits assumed): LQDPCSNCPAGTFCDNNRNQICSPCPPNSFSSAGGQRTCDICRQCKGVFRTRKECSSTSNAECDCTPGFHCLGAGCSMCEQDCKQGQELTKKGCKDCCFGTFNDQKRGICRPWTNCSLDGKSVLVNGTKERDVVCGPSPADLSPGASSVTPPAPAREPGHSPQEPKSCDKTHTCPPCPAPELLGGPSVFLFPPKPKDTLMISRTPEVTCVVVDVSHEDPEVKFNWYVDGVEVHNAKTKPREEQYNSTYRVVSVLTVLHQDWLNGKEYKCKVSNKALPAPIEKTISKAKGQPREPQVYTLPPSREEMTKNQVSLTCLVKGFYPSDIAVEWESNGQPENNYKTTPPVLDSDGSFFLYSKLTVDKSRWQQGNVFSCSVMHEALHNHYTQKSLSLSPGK

- EC50 [1]: 0.113 nM
B1: P4B-2 (bispecific antibody, human IgG1, kappa, L234A L235A)
heavy: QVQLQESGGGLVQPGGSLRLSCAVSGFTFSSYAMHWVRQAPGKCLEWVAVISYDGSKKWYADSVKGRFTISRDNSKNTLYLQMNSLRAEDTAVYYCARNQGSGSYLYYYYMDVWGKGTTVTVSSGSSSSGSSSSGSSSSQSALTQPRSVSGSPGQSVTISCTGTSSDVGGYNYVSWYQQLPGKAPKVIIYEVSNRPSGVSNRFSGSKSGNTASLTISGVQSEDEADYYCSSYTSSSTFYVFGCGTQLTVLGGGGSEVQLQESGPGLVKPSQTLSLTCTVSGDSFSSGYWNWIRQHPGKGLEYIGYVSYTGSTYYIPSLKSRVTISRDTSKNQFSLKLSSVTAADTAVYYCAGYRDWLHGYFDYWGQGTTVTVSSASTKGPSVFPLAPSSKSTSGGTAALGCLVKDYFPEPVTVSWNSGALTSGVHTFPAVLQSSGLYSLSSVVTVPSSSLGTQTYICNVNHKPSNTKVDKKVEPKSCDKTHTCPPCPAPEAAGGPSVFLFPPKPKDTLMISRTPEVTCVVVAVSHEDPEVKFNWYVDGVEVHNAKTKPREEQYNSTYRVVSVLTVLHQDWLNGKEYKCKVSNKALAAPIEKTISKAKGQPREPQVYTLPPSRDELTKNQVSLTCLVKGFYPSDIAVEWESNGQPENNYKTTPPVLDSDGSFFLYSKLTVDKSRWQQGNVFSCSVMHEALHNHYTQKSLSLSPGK
light: DIQMTQSPSSLSASVGDRVTITCKASQNVMDNVAWYQQKPGKAPKRLIYSASYRFSGVPSRFSGSGSGTEFTLTISSLQPEDFATYYCQQYNGYPLTFGQGTKLEIKRTVAAPSVFIFPPSDEQLKSGTASVVCLLNNFYPREAKVQWKVDNALQSGNSQESVTEQDSKDSTYSLSSTLTLSKADYEKHKVYACEVTHQGLSSPVTKSFNRGEC
notes: PD-L1 x 4-1BB bispecific; the 4-1BB scFv stands at the N-terminus of each heavy chain of the PD-L1 antibody

- binding result [3]: no binding (tested: 500 ng/mL)
- binding result [4]: no binding (tested: 500 ng/mL)
- binding result [5]: no binding (tested: 500 ng/mL)
- binding result [6]: no binding (tested: 500 ng/mL)
- binding result [7]: no binding (tested: 500 ng/mL)
- EC50 [8]: 0.05 nM
- EC50, NFκB-luciferase reporter (RLUs) in HEK293-NFκB-Luc-4-1BB cells, without crosslink [9]: 35.9 nM
B3: 41BB-27-IgG2 (antibody, V domains shown)
VH: QVQLQESGPGPVKPSETLSLTCAVSGGSISSSHWWSWVRQPPGKGLEWIGEIYHSGRTYYNPSLKSRVTISVDTSRNQFSLKLSSVTAADTAVYYCAREDGGIMDVWGQGTLVTVSS
VL: LSSELTQDPAVSVALGQTVRITCQGDSLRRFYASWYQQKPGQAPVLVIYGKNNRPSGIPDRFSASDSGNTASLTITGAQAEDEADYYCSSRDRSGYRWVFGGGTKVTVLG
notes: Full antibody, IgG2 / lambda

- EC50, NFκB-luciferase reporter (RLUs) in HEK293-NFκB-Luc-4-1BB cells, without crosslink [10]: 26.8 nM
- EC50, NFκB-luciferase reporter (RLUs) in HEK293-NFκB-Luc-4-1BB cells, without crosslink [13]: 32.3 nM
- EC50, NFκB-luciferase reporter (RLUs) in HEK293-NFκB-Luc-4-1BB cells, without crosslink [14]: 34 nM
B5: Urelumab (antibody, human IgG4 S228P, kappa, V domains shown)
VH: QVQLQQWGAGLLKPSETLSLTCAVYGGSFSGYYWSWIRQSPEKGLEWIGEINHGGYVTYNPSLESRVTISVDTSKNQFSLKLSSVTAADTAVYYCARDYGPGNYDWYFDLWGRGTLVTVSS
VL: EIVLTQSPATLSLSPGERATLSCRASQSVSSYLAWYQQKPGQAPRLLIYDASNRATGIPARFSGSGSGTDFTLTISSLEPEDFAVYYCQQRSNWPPALTFCGGTKVEIKR

- binding result [3]: no binding (tested: 500 ng/mL)
- binding result [4]: no binding (tested: 500 ng/mL)
- binding result [5]: no binding (tested: 500 ng/mL)
- binding result [6]: no binding (tested: 500 ng/mL)
- binding result [7]: no binding (tested: 500 ng/mL)
- EC50, NFκB-luciferase reporter (RLUs) in HEK293-NFκB-Luc-4-1BB cells, with crosslink (goat anti-human IgG) [15]: 3.24 nM
- EC50 [16]: 0.134 nM
- EC50, NFκB-luciferase reporter (RLUs) in HEK293-NFκB-Luc-4-1BB cells, without crosslink [14]: 16.6 nM
B6: 41BB-9-IgG2 (antibody, V domains shown)
VH: QVQLVQSGAEVKKPGSSVKVSCKASGGTFSSYAISWVRQAPGQGLEWMGGIIPISGAVNYAQKFQGRVTITADESTSTAYMELSSLRSEDTAVYYCARDQFIKYYDFSSGYFPNGFDIWGKGTLVTVSS
VL: QTVVTQPPSVSVSPGQTASITCSGDKLGDKYAAWYQQKPGQSPVLVIYQDTVRPSGIPERFSGSNSGNTATLTISGTQAMDEADYYCQTWVSSTGVFGTGTKVTVLG
notes: Full antibody, IgG2 / lambda

The next lines start with the binder.

B2: P4B-3 (bispecific antibody, human IgG1, kappa, L234A L235A)
heavy: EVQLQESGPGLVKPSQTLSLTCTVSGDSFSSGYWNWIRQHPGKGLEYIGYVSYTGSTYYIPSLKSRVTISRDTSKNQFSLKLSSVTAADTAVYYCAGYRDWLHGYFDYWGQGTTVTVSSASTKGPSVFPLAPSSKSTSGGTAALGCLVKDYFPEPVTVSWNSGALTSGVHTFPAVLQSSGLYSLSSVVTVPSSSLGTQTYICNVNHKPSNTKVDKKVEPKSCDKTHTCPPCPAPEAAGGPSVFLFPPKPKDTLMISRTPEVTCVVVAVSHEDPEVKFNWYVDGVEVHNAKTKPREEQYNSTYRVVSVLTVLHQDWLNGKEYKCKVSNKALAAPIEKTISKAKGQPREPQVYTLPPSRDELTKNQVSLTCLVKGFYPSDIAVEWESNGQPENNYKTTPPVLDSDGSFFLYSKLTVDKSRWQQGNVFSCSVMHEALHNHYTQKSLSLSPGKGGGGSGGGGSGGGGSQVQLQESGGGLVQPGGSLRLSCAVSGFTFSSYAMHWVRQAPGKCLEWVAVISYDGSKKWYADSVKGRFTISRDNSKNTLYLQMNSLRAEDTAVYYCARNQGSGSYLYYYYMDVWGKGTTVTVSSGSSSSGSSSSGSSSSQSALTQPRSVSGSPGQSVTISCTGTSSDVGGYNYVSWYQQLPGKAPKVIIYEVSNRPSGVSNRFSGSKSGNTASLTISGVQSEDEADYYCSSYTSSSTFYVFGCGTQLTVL
light: B1 light
notes: PD-L1 x 4-1BB bispecific; the 4-1BB scFv stands at the C-terminus of each heavy chain of the PD-L1 antibody
- Kd [2]: 146 nM
- koff [2]: 0.00409 s⁻¹
- kon [2]: 28000 M⁻¹ s⁻¹
- EC50 [1]: 0.0723 nM

B4: 41BB-2-IgG2 (antibody, V domains shown)
VH: QVQLQESGGGLVQPGGSLRLSCAVSGFTFSSYAMHWVRQAPGKGLEWVAVISYDGSKKWYADSVKGRFTISRDNSKNTLYLQMNSLRAEDTAVYYCARNQGSGSYLYYYYMDVWGKGTTVTVSS
VL: QSALTQPRSVSGSPGQSVTISCTGTSSDVGGYNYVSWYQQLPGKAPKVIIYEVSNRPSGVSNRFSGSKSGNTASLTISGVQSEDEADYYCSSYTSSSTFYVFGTGTQLTVLS
notes: Full antibody; VH joined to the IgG2 constant region, VL to the lambda constant region
- binding result [3]: no binding (tested: 500 ng/mL)
- binding result [4]: no binding (tested: 500 ng/mL)
- binding result [5]: no binding (tested: 500 ng/mL)
- binding result [6]: no binding (tested: 500 ng/mL)
- binding result [7]: no binding (tested: 500 ng/mL)
- EC50, NFκB-luciferase reporter (RLUs) in HEK293-NFκB-Luc-4-1BB cells, without crosslink [10]: 47.4 nM
- EC50 [11]: 0.622 nM
- EC50, NFκB-luciferase reporter (RLUs) in HEK293-NFκB-Luc-4-1BB cells, with crosslink (goat anti-human IgG) [12]: 6.21 nM
- EC50, NFκB-luciferase reporter (RLUs) in HEK293-NFκB-Luc-4-1BB cells, without crosslink [9]: 56.1 nM

B7: 41BB-13-IgG2 (antibody, V domains shown)
VH: EVQLVETGVEVKKPGASVKVSCKASGYTFTSYYMHWVRQAPGQGLEWMGIINPSGGSTSYAQKFQGRVTMTRDTSTSTAYMELSSLRSEDTAVYYCARDLGEGYDFWSGYYTPSGAFDIWGKGTMVTVSS
VL: QSALTQPASVSGSPGQSITISCTGTSSDVGGYNYVSWYQQRPGKAPKLIIYDVTTRPSGVSNRFSGSKSGTTASLTISGLQAEDEADYYCSSYTSYSTWVFGGGTKLTVLG
notes: Full antibody, IgG2 / lambda
- binding result [3]: no binding (tested: 500 ng/mL)
- binding result [4]: no binding (tested: 500 ng/mL)
- binding result [5]: no binding (tested: 500 ng/mL)
- binding result [6]: no binding (tested: 500 ng/mL)
- binding result [7]: no binding (tested: 500 ng/mL)
- EC50 [17]: 1.27 nM
- EC50, NFκB-luciferase reporter (RLUs) in HEK293-NFκB-Luc-4-1BB cells, with crosslink (goat anti-human IgG) [18]: 10.6 nM
- EC50, NFκB-luciferase reporter (RLUs) in HEK293-NFκB-Luc-4-1BB cells, without crosslink [13]: 106 nM

From patent publication US20210107982A1 (NANJING LEADS BIOLABS, published 2021)
